This is an account of results in publication PMC10953581, “SHMT2 Mediates Small‐Molecule‐Induced Alleviation of Alzheimer Pathology Via the 5′UTR‐dependent ADAM10 Translation Initiation”.

The chains are these.
T1: murine SUMO-SHMT2 (Mus musculus, UniProt Q9CZN7 1-504)
T1 sequence: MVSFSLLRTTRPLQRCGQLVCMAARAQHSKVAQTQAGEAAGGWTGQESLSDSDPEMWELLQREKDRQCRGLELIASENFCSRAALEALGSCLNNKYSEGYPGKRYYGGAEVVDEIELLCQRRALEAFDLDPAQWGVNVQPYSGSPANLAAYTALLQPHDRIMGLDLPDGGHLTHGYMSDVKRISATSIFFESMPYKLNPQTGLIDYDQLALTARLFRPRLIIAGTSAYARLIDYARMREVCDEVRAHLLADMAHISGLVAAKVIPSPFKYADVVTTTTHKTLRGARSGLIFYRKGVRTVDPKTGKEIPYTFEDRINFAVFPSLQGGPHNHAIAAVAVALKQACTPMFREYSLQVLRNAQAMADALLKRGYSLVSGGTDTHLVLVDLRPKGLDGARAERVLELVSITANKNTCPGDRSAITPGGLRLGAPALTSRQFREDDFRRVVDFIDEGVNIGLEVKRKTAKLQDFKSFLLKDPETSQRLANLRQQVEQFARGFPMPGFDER

T2: human SUMO-SHMT2 (Homo sapiens, UniProt P34897 1-504)
T2 sequence: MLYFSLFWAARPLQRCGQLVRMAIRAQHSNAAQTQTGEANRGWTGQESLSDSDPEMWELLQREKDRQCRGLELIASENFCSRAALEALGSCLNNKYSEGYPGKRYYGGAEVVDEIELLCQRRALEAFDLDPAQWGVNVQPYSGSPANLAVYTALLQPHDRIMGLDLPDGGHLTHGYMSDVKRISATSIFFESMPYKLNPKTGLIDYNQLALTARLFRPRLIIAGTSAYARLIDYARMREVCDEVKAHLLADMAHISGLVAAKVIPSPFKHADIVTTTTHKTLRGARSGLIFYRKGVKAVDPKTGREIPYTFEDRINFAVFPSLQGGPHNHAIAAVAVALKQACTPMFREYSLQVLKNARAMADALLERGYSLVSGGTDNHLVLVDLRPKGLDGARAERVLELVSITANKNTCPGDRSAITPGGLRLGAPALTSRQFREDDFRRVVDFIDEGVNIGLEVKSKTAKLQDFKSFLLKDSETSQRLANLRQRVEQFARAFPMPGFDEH

The target in the first data set is T1, murine SUMO-SHMT2. The data set can be described thus: EMSA; RNA EMSA (LightShift kit): 10 pmol biotin-RNA, 6 ug protein, 1X EMSA binding buffer, 5% glycerol, 0.1 mg/mL tRNA, 20 uL, 30 min, room temperature; salt and pH not stated. Particulars: protein: recombinant; tags: SUMO; label: 5' biotin. (In general: In EMSA bound probe runs differently from free probe, usually more slowly.)
Take GAGGGCAGGGAAGCGGGGAAGGGAGGAAG (ssRNA) [mouse 1-29]: the binding result is “binds”. On the same count and under the same terms, the value for GAAGAGGCCGAGGGGGAGGGAGGGCCCU (ssRNA) [mouse 30-57] was “binds”; that for GUUUUGGCGGAGCAGGGCGCGCGGCUGGG (ssRNA) [mouse 58-86] was “no binding”.

In the next data set the target is T2, human SUMO-SHMT2. The data set is described as above. The following applies: protein: recombinant; tags: SUMO; chain copies: 4; label: 5' biotin.
Take GGAAACGAACGAGGGGGAGGGA (ssRNA) [223-244]: the binding result is given as “binds”. As for GAGAGAAUAUUUAACGAGCAAGGGA (ssRNA) [MUT176-200], the binding result is recorded as “no binding”. Same read-out and setting: the value for AGGAAAGCGGGGAAAGGAGGAA (ssRNA) [201-222] was “binds”; that for AGUAAAUCGGGUAAAUGAGGAA (ssRNA) [MUT201-222] was “no binding”; that for GGACGGGUAGGGGCUUUAUGUA (ssRNA) [MUT69-90] was “no binding”. Still for that read-out and setting: the value for GGAAACGAACUAUUUGUAUUUA (ssRNA) [MUT223-244] was “no binding”; that for GAGAGAAGAGGGAACGAGCAAGGGA (ssRNA) [176-200] was “binds”.

As for UGAGUUUCGAAGUAUUUGGG (ssRNA) [MUT156-175], the binding result is given as “no binding”. Take GGACGGGUAGGGGCGGGAGGUA (ssRNA) [69-90]: the binding result is listed as “binds”.

As to UGAGUUUCGAAGGAGGGGGG (ssRNA) [156-175], the binding result is “binds”.
